These results are taken from patent US20220332848A1.

The target in assay [1] is CD47 (UniProt Q08722). Kind of assay: FACS binding CHO-K1 cells expressing CD47.
Assay [2] addresses human CTLA-4 (human) (UniProt P16410). Nature of the assay: FACS binding CHO-K1 cells expressing human CTLA-4. Background: Flow cytometry measures light scatter and fluorescence of single cells or particles in a stream.

Chain of CD47 (Q08722 19-323): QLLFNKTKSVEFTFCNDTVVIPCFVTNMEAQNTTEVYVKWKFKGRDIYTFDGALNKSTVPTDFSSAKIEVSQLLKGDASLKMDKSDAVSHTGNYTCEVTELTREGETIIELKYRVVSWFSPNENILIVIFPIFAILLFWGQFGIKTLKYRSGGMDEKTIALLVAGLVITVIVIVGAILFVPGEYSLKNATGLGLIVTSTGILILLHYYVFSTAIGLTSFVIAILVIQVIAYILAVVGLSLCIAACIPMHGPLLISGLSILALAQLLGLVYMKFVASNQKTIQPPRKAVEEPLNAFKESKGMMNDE
Chain of human CTLA-4 (human) (P16410 36-223): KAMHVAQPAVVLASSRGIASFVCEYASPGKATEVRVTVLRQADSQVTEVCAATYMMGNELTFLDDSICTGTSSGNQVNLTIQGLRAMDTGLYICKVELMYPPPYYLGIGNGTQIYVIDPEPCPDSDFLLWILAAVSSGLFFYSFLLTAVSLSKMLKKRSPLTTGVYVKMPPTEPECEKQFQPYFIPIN

The EC50 is the concentration at which the effect is half-maximal. Low values mean greater potency, high ones weaker potency. human IgG: the EC50 in assay [1] came out at 0.00385 µM; in assay [2], 0.0421 µM.
